Data on three molecules can be found in patent US20180112008A1 (Memorial Sloan Kettering, published 2018).

One test addresses T1, MUC16^c114-N3 (human, chain 1 pos 1 and pos 24: N-glycosylated Asn (cell-made glycans), written N).
T1 construct: MUC16^c114 with Asn30 (Asn1806) changed to Ala, on SKOV3 cells; also called N30 mut c114; SKOV3-N30 mutc114; not shown: hrGFP of the phrGFP II-C vector, fused at the cytoplasmic carboxy-terminus
T1 chain: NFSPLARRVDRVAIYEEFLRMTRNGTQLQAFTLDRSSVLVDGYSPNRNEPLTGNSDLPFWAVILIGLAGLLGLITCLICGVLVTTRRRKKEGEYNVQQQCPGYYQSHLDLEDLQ
In words: FACS, SKOV3-N30 mutc114.

For another test, the target named is T2, MUC16^c114 (human, capable of N-glycosylation at Asn1, Asn24 and Asn30 ; chain 1 pos 1, 24, 30: Asn capable of N-glycosylation on the transfected cells, written N).
T2 construct: The forward primer adds Met-Val before Asn1; also called MUC16^c114-GFP; SKOV3 MUC16^c114; not shown: hrGFP of the phrGFP II-C vector fused at the cytoplasmic carboxy-terminus, with its short cloning linker
T2 chain: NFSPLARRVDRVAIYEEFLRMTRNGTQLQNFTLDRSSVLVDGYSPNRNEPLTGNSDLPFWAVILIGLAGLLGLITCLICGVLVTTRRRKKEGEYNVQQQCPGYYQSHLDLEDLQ
The test can be described thus: FACS, SKOV3 transfectant, goat anti-mouse IgG-PE. (A flow cytometer gives signals particle by particle.)

For the next test, the target named is T3, MUC16^c114-N1 (human, chain 1 pos 24 and pos 30: N-glycosylated Asn (cell-made glycans), written N).
T3 construct: MUC16^c114 with Asn1 (Asn1777) changed to Ala, on SKOV3 cells; also called N1 mut c114; SKOV3 MUC16^c114-N1; not shown: hrGFP of the phrGFP II-C vector, fused at the cytoplasmic carboxy-terminus
T3 chain: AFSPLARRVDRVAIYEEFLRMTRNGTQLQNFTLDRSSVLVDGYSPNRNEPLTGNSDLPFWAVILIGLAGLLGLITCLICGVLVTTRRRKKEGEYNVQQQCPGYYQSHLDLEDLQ
In words: FACS, SKOV3 transfectant, goat anti-mouse IgG-PE.

Test [1] deals with T4, non-glycosylated 15-mer MUC16 peptide (human).
T4 construct: Same peptide as the GlcNAc2-15-mer without the glycan; also called unglycosylated 15-mer
T4 peptide: CGTQLQNFTLDRSSV
The test can be described thus: sandwich ELISA on 'MUC16 15mer'; Blank 0.021. (In an ELISA, binding on a coated surface is turned into a signal by an enzyme label.)

The target of test [2] is T5, (GlcNAc2)2-18-mer glycopeptide, unconjugated (human).
T5 construct: Used in ELISA without KLH; also called 18-mer(chitobiose)2[C-T22-V38]; 18mer-chitobiose peptide
T5 peptide: Ac-CTRN(GlcNAc2)GTQLQN(GlcNAc2)FTLDRSSV-NH2
The test can be described thus: ELISA during fusion screen, dilution 400, column 18S.

In test [3] the target is T6, MUC16 18mer + GlcNAc2-FUCOSE1 (also: N-linked GlcNAc2Fuc (fucosylated chitobiose), Asn site not given here).
T6 construct: also called 18-mer with fucosylated chitobiose (GlcNAc2Fuc)
T6 peptide: CTRNGTQLQNFTLDRSSV
In words: sandwich ELISA on 'MUC16 18mer + GlcNAc2-FUCOSE1'; Blank 0.044.

The next test concerns the target T7, MUC16 18mer (not fully specified).
T7 construct: also called non-glycosylated 18-mer MUC16 peptide
T7 peptide: CTRNGTQLQNFTLDRSSV
In words: ELISA 12/24/13 (sups from time of freezing), dilution 400, column 18.

Test [4] addresses T8, biotinylated chitobiose-conjugated 18-mer glycopeptide (human, also: biotinylated, site not given here).
T8 construct: Cys plus T22-V38 of MUC16^c114; The range is derived from T22-V38 and the statement that c114 is 1777-1890; also called (GlcNAc2)2-18-mer, biotinylated; 18-mer(chitobiose)2[C-T22-V38]
T8 peptide: Ac-CTRN(GlcNAc2)GTQLQN(GlcNAc2)FTLDRSSV-NH2
In words: BLI (Octet QK), biotinylated glycopeptide on streptavidin sensor, antibody 10 ug/mL, 1:1 model. On the procedure: Binding affinity was determined using ForeBio Octet QK. 5 μg/mL of biotinylated chitobiose-conjugated 18-mer glycopeptide was loaded onto a streptavidin biosensor. After washing off excess antigen, mouse antibodies were tested at 10 μg/mL for association and dissociation steps, respectively. Binding parameters were calculated using 1:1 binding site model, partial fit.
A general note: In BLI a coated tip is dipped into the sample, and binding shifts an interference pattern.

Ends that are not written are not given here. * marks the point of attachment. GlcNAc2 = N-linked chitobiose, CC(=O)N[C@@H]1[C@@H](O)[C@H](O[C@@H]2O[C@H](CO)[C@@H](O)[C@H](O)[C@H]2NC(C)=O)[C@@H](CO)O[C@H]1*

B1: 18C6.D12 (antibody, V domains shown)
VH: QVTLKESGPGILQPSQTLSLTCSFSGFSLSTVGMGVGWSRQPSGKGLEWLAHIWWDDEDKYYNPALKSRLTISKDTSKNQVFLKIANVDTADTATYYCTRIGTAQATDALDYWGQGTSVTVSS
VL: DIVMTQAAPSVPVTPGESVSISCRSSKSLLHSNGNTYLYWFLQRPGQSPQRLIYYMSNLASGVPDRFSGRGSGTDFTLRISRVEAEDVGVYYCMQSLEYPLTFGGGTKLEIK
notes: Mouse monoclonal from a hybridoma; also called MUC16 Glycosylation Antibody 18C6
Broadly, the Kd is the constant that tells how readily two partners part at equilibrium. A higher Kd goes with lower affinity. What is called koff is the rate constant with which the complex falls apart. The low end stands for slow dissociation, the high end for fast dissociation. Molecule B1 displayed a geometric mean phycoerythrin (PE) fluorescence with MUC16^c114-N3 of 1700. The “Mean % PE” value in the test with MUC16^c114 came to 73.1%; with MUC16^c114-N1, 83%. In addition, the ELISA signal turned out to be 1.06 in test [1], 0.64 in test [2], 1.03 in test [3] and 0.45 in the test with MUC16 18mer. For the same molecule, the Kd in test [4] came out at 11.1 nM. For the same molecule, the koff in test [4] worked out at 0.000678 s⁻¹.

B2: 19C11.H6 (antibody, V domains shown)
VH: QVNLKESGPGKLQPSQTLSLTCSFSGFSLSTLGMGVGWIRQSSGKGLEWLAHIWWDDDKYYNPALKSRLTISRATSKNQVFLKIVNVGTADTATYYCARIGTAQATDALDYWGQGTSVTVSS
VL: DIVMTQAAPSIPVTPGESVSISCRSSKSLLHSNGNTYLYWFLQRPGQSPQRLIYYMSNLASGVPDRFSGRGSGTDFTLKISRVEAGDVGVYYCMQGLEHPLTFGGGTKLEIK
notes: Mouse monoclonal from a hybridoma; Used as 89Zr-DFO-labelled antibody in the internalization assay; also called MUC16 Glycosylation Antibody 19C11
Consider B2, for which the geometric mean phycoerythrin (PE) fluorescence with MUC16^c114-N3 is 536. Besides, the “Mean % PE” value with MUC16^c114 was 69.3%; with MUC16^c114-N1, 81.7%. Further, the ELISA signal in test [1] is 1.17; in test [2], 0.47; in test [3], 1.01; in the test with MUC16 18mer, 0.2. For the same molecule, the Kd in test [4] came to 63.7 nM. For the same molecule, in test [4], the koff was 0.00242 s⁻¹.

B3: 7B12.B3 (antibody, V domains shown)
VH: QVTLKESGPGILQPSQTLSLTCSFSGFSLSTVGMGVGWSRQPSGKGLEWLAHIWWDDEDKYYNPALKSRLTISKDTSKNQVFLKIANVDTADSATYYCTRIGTAQATDALDYWGQGTSVTVSS
VL: DIVMTQAAPSVSVTPGESVSISCRSSKSLRKSNGNTYLYWFLQRPGQSPQRLIYYMSNLASGVPDRFSGRGSGTDFTLRISRVEAEDVGVYYCMQSLEYPLTFGGGTKLKIK
notes: Mouse monoclonal from a hybridoma; also called MUC16 Glycosylation Antibody 7B12
With B3, the ELISA signal is 1.21 in test [1], 0.92 in test [2], 1.1 in test [3] and 0.33 with MUC16 18mer. The molecule also gave a Kd in test [4] of 13.8 nM. The koff in test [4] worked out at 0.00104 s⁻¹.
